Where a chain is given by its changes, count along the chain named.
Assays:
[1] = target: T1, Sox9 (recombinant, rSox9) (UniProt Q04887 Q04887:1-507); assay: EMSA; both sides mutated; shift disappeared; conditions: label: 32P
Procedure: (§1) To a reaction solution containing 20 mmol/L of HEPES (pH 7.9), 10% of glycerol, 50 mmol/L of KCl, 0.05% of NP-40, 0.5 mmol/L of EDTA, 0.5 mmol/L of DTT, 1 mmol/L of PMSF and 0.25 μg of Poly dG-dC was/were appropriately added 0.1 μg of a recombinant Sox9 (rSox9) and/or an anti-Sox9 antibody (manufactured by Millipore Corporation) followed by incubating at room temperature for 30 minutes. After that, the above RI-labeled probe was added, incubated at room temperature for 30 minutes and subjected to 4% polyacrylamide gel electrophoresis. After the electrophoresis, RI was detected using FLA-7000 (manufactured by Fujifilm) which is an image analysis apparatus.

recombinant Sox9 (rSox9) = target: T2, recombinant Sox9 (rSox9) (Homo sapiens, UniProt P48436); assay: Electrophoretic mobility shift assay (EMSA), Sox9 binding of RI-labeled probes; conditions: for shift of the band: incubation with rSox9
T2 sequence (P48436 1-509): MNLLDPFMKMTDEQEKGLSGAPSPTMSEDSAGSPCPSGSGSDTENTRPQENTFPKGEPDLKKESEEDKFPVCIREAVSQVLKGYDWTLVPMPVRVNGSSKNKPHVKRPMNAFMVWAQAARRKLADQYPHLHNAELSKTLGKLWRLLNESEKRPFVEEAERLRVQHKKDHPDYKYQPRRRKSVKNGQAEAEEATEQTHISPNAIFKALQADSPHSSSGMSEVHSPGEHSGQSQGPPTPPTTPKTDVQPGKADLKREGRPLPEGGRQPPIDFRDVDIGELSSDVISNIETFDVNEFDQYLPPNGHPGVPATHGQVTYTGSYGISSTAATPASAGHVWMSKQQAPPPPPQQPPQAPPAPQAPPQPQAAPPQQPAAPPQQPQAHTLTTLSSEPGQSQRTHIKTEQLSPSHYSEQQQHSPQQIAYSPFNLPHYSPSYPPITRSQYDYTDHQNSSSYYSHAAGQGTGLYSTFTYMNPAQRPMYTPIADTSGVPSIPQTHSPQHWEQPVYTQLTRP
Procedure: To a reaction solution comprising 1× Protruding End Kinase buffer, 0.4 μmol/L of sense oligo or antisense oligo and 1 U of T4 Polynucleotide Kinase (manufactured by Toyobo Co., Ltd.) was added P^32 γATP followed by subjecting to a reaction at 37° C. for 1 hour. The sense oligo and the antisense oligo finishing each of their reactions were mixed, incubated at 99° C. for 10 seconds and gradually returned to room temperature during 1 hour to prepare a double-stranded DNA labeled with radioisotope (RI). The RI-labeled probe was used after purifying by PrbeQuant G-50 Micro Column.
as §1

[2] = target: T1, Sox9 (recombinant, rSox9); assay: EMSA; 0.1 ug rSox9, poly dG-dC, 50 mM KCl, room temperature; supershift with anti-Sox9; conditions: label: 32P
Procedure: as §1

[3] = target: T1, Sox9 (recombinant, rSox9); assay: EMSA; right-side half-site mutated; shift disappeared; conditions: label: 32P
Procedure: as §1

[4] = target: T1, Sox9 (recombinant, rSox9); assay: EMSA; left-side half-site mutated; shift still observed; conditions: label: 32P
Procedure: as §1

B1: miR140-PSB-mut3 probe (dsDNA)
DNA 1: CTGGGTTGGGCCCCAGGCATCGTCCTGCTGCT
DNA 2: AGCAGCAGGACGATGCCTGGGGCCCAACCCAG
[1]
  binding result: no binding

B2: miR-140-PSB-mut3: RI-labeled probe, SEQ ID Nos. 34/35, mutation in both sides of the palindromic Sox9 binding sequence (nucleic acid)
chain 1: B1 DNA 1
chain 2: B1 DNA 2
modifications: DNA, backbone and methylation of C not given here; radioisotope-labeled double-stranded DNA probe, further chemistry not fully specified
Recombinant Sox9 (rSox9)
  shift of the band: shift of the band disappeared

B3: miR140-PSB probe (dsDNA)
DNA 1: CTGGACTGAGCCCCATTCATCGTCCTGCTGCT
DNA 2: AGCAGCAGGACGATGAATGGGGCTCAGTCCAG
[2]
  binding result: binds

B4: miR-140-PSB: RI-labeled double-stranded DNA probe, SEQ ID Nos. 28/29, palindromic Sox9 binding sequence (Table 3: miR140-PSB) (nucleic acid)
chain 1: B3 DNA 1
chain 2: B3 DNA 2
modifications: DNA, backbone and methylation of C not given here; radioisotope-labeled double-stranded DNA probe, further chemistry not fully specified
Recombinant Sox9 (rSox9)
  shift of the band: shift of the band was observed
Recombinant Sox9 (rSox9); rSox9 and further incubation with anti-Sox9 antibody
  supershift of the band: supershift of the band was observed

B5: miR140-PSB-mut1 probe (dsDNA)
DNA 1: B3 DNA 1 with T16G, T17G
DNA 2: B3 DNA 2 with A16C, A17C
[3]
  binding result: no binding

B6: miR-140-PSB-mut2: RI-labeled probe, SEQ ID Nos. 32/33, mutation in the left side of the palindromic Sox9 binding sequence (nucleic acid)
chain 1: B1 DNA 1 with G16T, G17T
chain 2: B1 DNA 2 with C16A, C17A
modifications: DNA, backbone and methylation of C not given here; radioisotope-labeled double-stranded DNA probe, further chemistry not fully specified
Recombinant Sox9 (rSox9)
  shift of the band: shift of the band was observed

B7: miR140-PSB-mut2 probe (dsDNA)
DNA 1: B1 DNA 1 with G16T, G17T
DNA 2: B1 DNA 2 with C16A, C17A
[4]
  binding result: binds

B8: miR-140-PSB-mut1: RI-labeled probe, SEQ ID Nos. 30/31, mutation in the right side of the palindromic Sox9 binding sequence (nucleic acid)
chain 1: B3 DNA 1 with T16G, T17G
chain 2: B3 DNA 2 with A16C, A17C
modifications: DNA, backbone and methylation of C not given here; radioisotope-labeled double-stranded DNA probe, further chemistry not fully specified
Recombinant Sox9 (rSox9)
  shift of the band: shift of the band disappeared

Reference: patent US20150056630A1, “DNA CONTROLLING MIR-140 EXPRESSION, AND SCREENING METHOD OF DRUGS USING SAID DNA” (NATIONAL CENTER FOR CHILD HEALTH AND DEVELOPMENT, priority 2012, published 2015)
